Measured values as given in patent US20020127684.

Legend:
GST-ATF2 = target: T1, GST-ATF2
T1 sequence (P15336 whole entry, species assumed, looked up): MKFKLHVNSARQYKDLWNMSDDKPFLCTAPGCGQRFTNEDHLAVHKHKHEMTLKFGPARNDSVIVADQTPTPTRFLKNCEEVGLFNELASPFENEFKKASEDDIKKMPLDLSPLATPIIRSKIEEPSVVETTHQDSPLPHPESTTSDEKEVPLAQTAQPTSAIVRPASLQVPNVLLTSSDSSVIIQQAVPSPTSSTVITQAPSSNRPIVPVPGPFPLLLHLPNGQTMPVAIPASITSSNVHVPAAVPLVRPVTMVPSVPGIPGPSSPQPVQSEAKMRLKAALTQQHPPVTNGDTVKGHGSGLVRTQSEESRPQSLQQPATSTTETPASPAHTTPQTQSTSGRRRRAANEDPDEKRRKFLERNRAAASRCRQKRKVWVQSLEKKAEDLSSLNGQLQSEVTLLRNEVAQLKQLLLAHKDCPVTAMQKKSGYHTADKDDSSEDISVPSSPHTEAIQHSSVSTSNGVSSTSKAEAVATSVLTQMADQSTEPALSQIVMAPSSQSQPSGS

Measured: in vitro kinase assay with gamma-32P ATP: phosphorylation of heterologous substrate

Chain of myelin basic protein (P02687 whole entry): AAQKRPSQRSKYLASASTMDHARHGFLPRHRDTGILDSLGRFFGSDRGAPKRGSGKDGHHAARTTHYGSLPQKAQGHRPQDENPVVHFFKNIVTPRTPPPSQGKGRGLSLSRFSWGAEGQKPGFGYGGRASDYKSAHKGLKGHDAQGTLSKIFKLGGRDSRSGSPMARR

B1: GST-CARK-KD fusion protein (CARK kinase domain, amino acid residues 424 to 835 of SEQ ID NO:2) (protein)
chain: SYVSVPSPLGKIKSMTKEKADILLLRAGLPSHFHLQLSEIEFHEIIGSGSFGKVYKGRCRNKIVAIKRYRANTYCSKSDVDMFCREVSILCQLNHPCVIQFVGACLNDPSQFAIVTQYISGGSLFSLLHEQKRILDLQSKLIIAVDVAKGMEYLHNLTQPIIHRDLNSHNILLYEDGHAVVADFGESRFLQSLDEDNMTKQPGNLRWMAPEVFTQCTRYTIKADVFSYALCLWEILTGEIPFAHLKPAAAAADMAYHHIRPPIGYSIPKPISSLLIRGWNACPEGRPEFSEVVMKLEECLCNIELMSPASSNSSGSLSPSSSSDCLVNRGGPGRSHVAALRSRFELEYALNARSYAALSQSAGQYSSQGLSLEEMKRSLQYTPIDKYGYVSDPMSSMHFHSCRNSSSFEDSS
phosphorylated: GST-ATF2 | H1 histone | Phas-1 (4E-BP-1) | myelin basic protein

B2: GST-CARK fusion protein (full length human CARK) (protein)
chain: MGNYKSRPTQTCTDEWKKKVSESYVITIERLEDDLQIKEKELTELRNIFGSDEAFSKVNLNYRTENGLSLLHLCCICGGKKSHIRTLMLKGLRPSRLTRNGFTALHLAVYKDNAELITSLLHSGADIQQVGYGGLTALHIATIAGHLEAADVLLQHGANVNIQDAVFFTPLHIAAYYGHEQVTRLLLKFGADVNVSGEVGDRPLHLASAKGFLNIAKLLMEEGSKADVNAQDNEDHVPLHFCSRFGHHDIVKYLLQSDLEVQPHVVNIYGDTPLHLACYNGKFEVAKEIIQISGTESLTKENIFSETAFHSACTYGKSIDLVKFLLDQNVININHQGRDGHTGLHSACYHGHIRLVQFLLDNGADMNLVACDPSRSSGEKDEQTCLMWAYEKGHDAIVTLLKHYKRPQDELPCNEYSQPGGDGSYVSVPSPLGKIKSMTKEKADILLLRAGLPSHFHLQLSEIEFHEIIGSGSFGKVYKGRCRNKIVAIKRYRANTYCSKSDVDMFCREVSILCQLNHPCVIQFVGACLNDPSQFAIVTQYISGGSLFSLLHEQKRILDLQSKLIIAVDVAKGMEYLHNLTQPIIHRDLNSHNILLYEDGHAVVADFGESRFLQSLDEDNMTKQPGNLRWMAPEVFTQCTRYTIKADVFSYALCLWEILTGEIPFAHLKPAAAAADMAYHHIRPPIGYSIPKPISSLLIRGWNACPEGRPEFSEVVMKLEECLCNIELMSPASSNSSGSLSPSSSSDCLVNRGGPGRSHVAALRSRFELEYALNARSYAALSQSAGQYSSQGLSLEEMKRSLQYTPIDKYGYVSDPMSSMHFHSCRNSSSFEDSS
phosphorylated: GST-ATF2 | H1 histone | Phas-1 (4E-BP-1) | myelin basic protein
